Consider 3 substances from publication PMC5913127.

Test [1] deals with dimeric Aβ_(1-15) multi-antigen peptide (MAP). Briefly: not stated; binding of antibody to branched multi-antigen peptides of Aβ1-15, EC50 (Fig. S5).
For test [2], the target named is Aβ_(1-16) peptide (UniProt P05067). The test is described as follows: MST.
The target of test [3] is Aβ_(1-28) peptide. The test is described as follows: SPR.
Test [4] concerns the target ^chaducanumab (murine chimeric IgG2a/kappa version of aducanumab) (human | murine). The test is described as follows: ELISA; antibody (5 μg/mL) captured on coated goat anti-mouse IgG Fcγ antibody; serially diluted monomeric biotin-conjugated Aβ1-40 in PBS with 1% BSA; HRP-streptavidin detection. On the technique in general: In an ELISA, binding on a coated surface is turned into a signal by an enzyme label.

A value given as a limit tells only on which side of the number the result lay.

Aβ_(1-28) peptide, sequence (P05067 672-699): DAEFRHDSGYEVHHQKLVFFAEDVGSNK

One may read the EC50 as the concentration giving half of the maximal effect. In test [1], “^chaducanumab (murine chimeric IgG2a/kappa version of aducanumab) (antibody)” registered an EC50 greater than 1000 nM.
One may read the Kd as the equilibrium constant for the complex coming apart. A low value points to tighter binding. Turning to chgantenerumab, the Kd in test [2] is 96.6 nM; in test [3], 1300 nM.
Turning to “biotin-conjugated Aβ_(1-40) (Aβ_(1-40)-Lys-Biotin), monomeric (peptide)”, the concentration for a half-maximal effect (EC50) in test [4] was greater than 1000 nM.
